B1: REGN16334 (bispecific antibody, human IgG4 S228P, kappa)
heavy 1: QLQLQESGPGLVRPSETLSLTCSVSGASMNTNNYYWGWIRQPPGKGLEWIGSGYYNGNTYYNPSLKSRVTISVDTSKNQFSLKLNSVTAADTAVYYCARQTPPRIIGSPNIWGQGTMVTVSSASTKGPSVFPLAPCSRSTSESTAALGCLVKDYFPEPVTVSWNSGALTSGVHTFPAVLQSSGLYSLSSVVTVPSSSLGTKTYTCNVDHKPSNTKVDKRVESKYGPPCPPCPAPGGGGPSVFLFPPKPKDTLMISRTPEVTCVVVDVSQEDPEVQFNWYVDGVEVHNAKTKPREEQFNSTYRVVSVLTVLHQDWLNGKEYKCKVSNKGLPSSIEKTISKAKGQPREPQVYTLPPSQEEMTKNQVSLTCLVKGFYPSDIAVEWESNGQPENNYKTTPPVLDSDGSFFLYSRLTVDKSRWQEGNVFSCSVMHEALHNHYTQKSLSLSLGK
heavy 2: EVQLVESGGGLVQPGGSLRLSCAASGFTFGSYGMAWVRQAPGKGLEWVSAISGSGDYTNYADSVKRRFTISRDNSKNTLYLQMSSLRAEDTAVYYCAKEKTGTTGYLYSGMDVWGQGTTVTVSSASTKGPSVFPLAPCSRSTSESTAALGCLVKDYFPEPVTVSWNSGALTSGVHTFPAVLQSSGLYSLSSVVTVPSSSLGTKTYTCNVDHKPSNTKVDKRVESKYGPPCPPCPAPGGGGPSVFLFPPKPKDTLMISRTPEVTCVVVDVSQEDPEVQFNWYVDGVEVHNAKTKPREEQFNSTYRVVSVLTVLHQDWLNGKEYKCKVSNKGLPSSIEKTISKAKGQPREPQVYTLPPSQEEMTKNQVSLTCLVKGFYPSDIAVEWESNGQPENNYKTTPPVLDSDGSFFLYSRLTVDKSRWQEGNVFSCSVMHEALHNRFTQKSLSLSPGK
light: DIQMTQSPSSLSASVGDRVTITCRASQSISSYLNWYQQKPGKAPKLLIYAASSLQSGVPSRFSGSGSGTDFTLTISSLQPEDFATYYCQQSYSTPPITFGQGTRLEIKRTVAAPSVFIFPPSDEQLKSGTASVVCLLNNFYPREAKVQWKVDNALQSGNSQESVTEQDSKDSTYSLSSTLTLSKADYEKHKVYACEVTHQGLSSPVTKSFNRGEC
notes: D1 arm from 21519P2, D2 arm from 21520P2, common light chain; also called CD40xCD40 (21519 x 21520)
B2: REGN16335 (bispecific antibody, human IgG4 S228P, kappa)
heavy 1: EVQLVESGGGLVQPGGSLRLSCAASGFTFSSYAMNWVRQAPGKGLEWVSIISGTIGKTYYADSVKGRFTISRDNSKNTLYLQMNSLRGEDTAVYYCAKDTERDITGSPFDYWGQGTLVTVSSASTKGPSVFPLAPCSRSTSESTAALGCLVKDYFPEPVTVSWNSGALTSGVHTFPAVLQSSGLYSLSSVVTVPSSSLGTKTYTCNVDHKPSNTKVDKRVESKYGPPCPPCPAPGGGGPSVFLFPPKPKDTLMISRTPEVTCVVVDVSQEDPEVQFNWYVDGVEVHNAKTKPREEQFNSTYRVVSVLTVLHQDWLNGKEYKCKVSNKGLPSSIEKTISKAKGQPREPQVYTLPPSQEEMTKNQVSLTCLVKGFYPSDIAVEWESNGQPENNYKTTPPVLDSDGSFFLYSRLTVDKSRWQEGNVFSCSVMHEALHNHYTQKSLSLSLGK
heavy 2: B1 heavy 2
light: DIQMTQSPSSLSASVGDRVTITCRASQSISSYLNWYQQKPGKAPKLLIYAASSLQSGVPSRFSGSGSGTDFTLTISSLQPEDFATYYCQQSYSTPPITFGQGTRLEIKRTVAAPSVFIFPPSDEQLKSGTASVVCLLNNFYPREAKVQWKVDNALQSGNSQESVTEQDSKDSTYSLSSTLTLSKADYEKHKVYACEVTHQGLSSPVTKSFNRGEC
notes: D1 arm from 30027P2, D2 arm from 21520P2, common light chain; also called CD40xCD40 (30027 x 21520)

Assays:
[1] = target: T1, human CD40 extracellular domain expressed with a C-terminal myc-myc-hexahistidine tag (human); assay: ELISA blocking of 40 nM hCD40-mmH binding to 9His-hCD40L
T1 construct: also called hCD40-MMH; hCD40-mmH
From the text: An ELISA-based blocking assay was developed to determine the ability of C40×CD40 bispecific antibodies to block the binding of the hCD40 monomer to plate-coated hCD40L. The recombinant human CD40-mmH protein (hCD40-MMH; REGN3094; SEQ ID NO: 53) used in the experiments comprises a portion of the human CD40 extracellular domain (amino acids P20-R193) fused to 2×Myc peptide and 6×histadine (SEQ ID NO: 1110) at the C-terminus of human CD40, and the human CD40L (accession #NM_000074.2) with amino acids E108-L261 of the extracellular domain with 9×His-2×(SGGG)-IGER at the N-terminus (9His-hCD40L) was commercially obtained from Biolegend.
In the blocking assay, 9His-hCD40L was passively absorbed at a concentration of 5 μg/mL in PBS on a 96-well microtiter plate overnight at 4° C. […] In a separate 96-well microtiter plate, a fixed amount of 40 nM hCD40-mmH was pre-mixed with one of the following antibodies, at concentrations ranging from 977 pM to 1 μM in PBS+0.5% BSA: (1) CD40×CD40 bispecific antibodies (REGN16431, REGN16432, REGN16634, and REGN16335); (2) parental CD40 mAbs (bivalent antibodies comprising 2 fragment antigen-binding [Fab] arms identical to one of anti-CD40 Fab of CD40×CD40 antibodies); (3) CD40×Irrelevant antibodies (bivalent antibodies that incorporate one Fab arm identical to one of anti-CD40 Fab of CD40×CD40 antibodies and another Fab arm specific to an irrelevant antigen); and (4) human IgG4 with Fc mutation isotype control antibodies (REGN7540 and REGN4513). The fixed concentration of hCD40-mmH was selected to be near the concentration (EC₅₀ value) that generated 50% of the maximal binding to the plate-adhered 9His-hCD40L. After one-hour incubation, the antibody-antigen complexes were transferred to the microtiter plate coated with 9His-hCD40L. After one hour incubation at room temperature, the plates were washed, and plate-bound hCD40-mmH protein was detected with horseradish peroxidase (HRP) conjugated goat anti-c-Myc antibody. The plates were then developed using TMB substrate solution (BD Biosciences) according to the manufacturer's recommended procedure and the absorbance at 450 nm (OD₄₅₀) was measured on a SpectraMax i3×plate reader.

[2] = target: T2, human CD40 (hCD40) expressed on cells (human, UniProt P25942 21-277); assay: cell-based or functional assay
[3] = target: T3, Macaca fascicularis CD40 (mfCD40) expressed on HEK293/D9/mfCD40 cells (Macaca fascicularis, UniProt G7PG38 21-278); assay: flow cytometry, HEK293/D9/mfCD40 cells
T3 construct: whole, on cells; also called monkey CD40
Experimental: (§1) Cells were washed with 2% FBS (w/v) in 1×PBS (flow cytometry staining buffer) by centrifugation with benchtop Centrifuge 5810R (Eppendorf®, Hamburg, Germany). Cells were incubated for 30 minutes at 4° C. with serial dilutions of following antibodies ranging from 1.7 pM to 100 nM in flow cytometry staining buffer (1) anti-CD40×CD40 bispecific antibodies, or (2) parental anti-CD40 antibodies (bivalent antibodies comprising 2 fragment antigen-binding [Fab] arms identical to one of the two anti-CD40 Fab of bispecific anti-CD40×CD40 antibodies), or (3) anti-CD40×Irrelevant antibodies (bivalent antibodies that incorporate one Fab arm identical to one of anti-CD40 Fab of anti-CD40×CD40 antibodies and another Fab arm specific to an irrelevant antigen, i.e. birch pollen main allergen Bet v1), or (4) human IgG4 isotype control antibodies with Fc mutation. After washing, cell bound antibodies were detected with 2.5 μg/ml Allophycocyanin (APC)-conjugated goat anti-human IgG antibody specific for the Fcγ fragment (Jackson Immunoresearch, West Grove, PA) for 30 minutes at 4° C. Cells were washed and subsequently fixed with 50% solution of Cytofix™ Fixation Buffer (BD, Franklin Lakes, NJ) in flow cytometry staining buffer for 20 minutes at room temperature. Cells were washed and resuspended in flow cytometry staining buffer and stored at 4° C. for downstream flow cytometry analysis.
(§2) Acquisition of fluorescence signals were recorded on the ZE5 Cell Analyzer (Bio-Rad, Hercules, CA) according to the manufacturer's recommended procedure and flow cytometry data analysis was performed using the open-source R packages flowCore, flowStats, flowDensity, ggCyto, and flowAI. Multiplexed samples were deconvoluted and individual cell populations were identified based on their unique CellTrace™ fluorescence signature. APC Median Fluorescence intensity (MFI) was recorded to indicate the binding intensity of each antibody over a range of concentrations. Antibodies with MFI greater than 1500 at the highest tested concentration (100 nM) were classified as specific binders. In addition, direct binding signals (APC MFI) were analyzed as a function of the antibody concentration and data were fitted with a sigmoidal (four-parameter logistic) dose-response model using GraphPad Prism™ software.

[4] = target: T2, human CD40 (hCD40) expressed on cells; assay: cell-based or functional assay; remark: listed apart in the source
[5] = target: T2, human CD40 (hCD40) expressed on cells; assay: flow cytometry, Ramos 2G6.4C10 cells
Experimental: as §1, §2

[6] = target: T2, human CD40 (hCD40) expressed on cells; assay: cell-based or functional assay; remark: listed apart in the source
[7] = target: T2, human CD40 (hCD40) expressed on cells; assay: flow cytometry, HEK293/D9/hCD40 cells
Experimental: as §1, §2

[8] = target: T2, human CD40 (hCD40) expressed on cells; assay: cell-based or functional assay; remark: listed apart in the source
[9] = target: T2, human CD40 (hCD40) expressed on cells; assay: cell-based or functional assay; remark: listed apart in the source
[10] = target: T2, human CD40 (hCD40) expressed on cells; assay: cell-based or functional assay; remark: listed apart in the source
[11] = target: T2, human CD40 (hCD40) expressed on cells; assay: cell-based or functional assay; remark: listed apart in the source
[12] = target: T2, human CD40 (hCD40) expressed on cells; assay: cell-based or functional assay; remark: listed apart in the source
[13] = target: T2, human CD40 (hCD40) expressed on cells; assay: cell-based or functional assay; remark: listed apart in the source

T1 sequence (chain, as listed by the source limits assumed): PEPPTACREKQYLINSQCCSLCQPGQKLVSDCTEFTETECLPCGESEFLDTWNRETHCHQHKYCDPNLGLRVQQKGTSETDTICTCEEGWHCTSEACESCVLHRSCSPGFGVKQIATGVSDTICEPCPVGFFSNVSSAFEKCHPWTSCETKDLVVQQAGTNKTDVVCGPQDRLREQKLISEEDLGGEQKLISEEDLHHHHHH
T2 sequence (P25942 21-277): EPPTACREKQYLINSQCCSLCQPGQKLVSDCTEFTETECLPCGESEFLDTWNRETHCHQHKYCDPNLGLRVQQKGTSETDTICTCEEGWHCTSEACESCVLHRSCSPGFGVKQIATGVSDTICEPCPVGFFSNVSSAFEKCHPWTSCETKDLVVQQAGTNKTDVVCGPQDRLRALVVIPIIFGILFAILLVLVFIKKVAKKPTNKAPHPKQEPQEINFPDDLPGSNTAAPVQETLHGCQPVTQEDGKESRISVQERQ

| Binder | % Blocking at 1 uM mAb [1] [%] | IC50 [1] [nM] | IC50, 10 nM hCD40L, THP-1 NFkB-luc [2] [nM] | Max % activation, no ligand, THP-1 NFkB-luc [2] [%] | Max % inhibition, 10 nM hCD40L, THP-1 NFkB-luc [2] [%] | EC50 [3] [nM] | MFI at 100 nM [3] [MFI] | % max blockade relative to no mAb, TNFa, donor 1 [4] [%] | % max blockade relative to no mAb, TNFa, donor 2 [4] [%] | % max blockade relative to no mAb, TNFa, donor 3 [4] [%] | EC50 [5] [nM] | MFI at 100 nM [5] [MFI] | IC50, 900 pM hCD40L, Raji NFkB-luc [6] [M] | Max % activation, no ligand, Raji NFkB-luc [6] [%] | Max % inhibition, 900 pM hCD40L, Raji NFkB-luc [6] [%] | EC50 [7] [nM] | MFI at 100 nM [7] [MFI] | % max blockade relative to no mAb, IL-6, assay #2 donor 1 [8] [%] | % max blockade relative to no mAb, IL-6, assay #2 donor 2 [8] [%] | % max blockade relative to no mAb, IL-10, assay #2 donor 1 [9] [%] | also measured |
| --- | --- | --- | --- | --- | --- | --- | --- | --- | --- | --- | --- | --- | --- | --- | --- | --- | --- | --- | --- | --- | --- |
| B1 | 98 | 32 | 0.553 | 1 | 98 | 9.1 | 41700 | 44 | 63.5 | 68.5 | 2 | 3760 | 5.76e-11 | 13 | 113 | 2 | 29000 | 88.9 | 89.2 | 87.7 | % max blockade relative to no mAb, IL-10, assay #2 donor 2 [9]: 89.9%; % max blockade relative to no mAb, TNFa, assay #2 donor 1 [10]: 62.8%; % max blockade relative to no mAb, TNFa, assay #2 donor 2 [10]: 51.1%; IC50, 500 pM hCD40L, Ramos NFkB-luc [11]: 6.93e-11 M; Max % activation, no ligand, Ramos NFkB-luc [11]: 6%; Max % inhibition, 500 pM hCD40L, Ramos NFkB-luc [11]: 91%; % max blockade relative to no mAb, IL-10, donor 1 [12]: 74.2%; % max blockade relative to no mAb, IL-10, donor 2 [12]: 91.4%; % max blockade relative to no mAb, IL-10, donor 3 [12]: 92.4%; % max blockade relative to no mAb, IL-6, donor 1 [13]: 84.5%; % max blockade relative to no mAb, IL-6, donor 2 [13]: 92%; % max blockade relative to no mAb, IL-6, donor 3 [13]: 92% |
| B2 | 96 | 32 | 0.221 | 3 | 98 | 2.4 | 47300 | 45 | 64.7 | 61.6 | 1 | 3750 | 4.94e-11 | 9 | 102 | 1.6 | 28900 | 88.4 | 87 | 88.5 | % max blockade relative to no mAb, IL-10, assay #2 donor 2 [9]: 87.8%; % max blockade relative to no mAb, TNFa, assay #2 donor 1 [10]: 62.4%; % max blockade relative to no mAb, TNFa, assay #2 donor 2 [10]: 52.5%; IC50, 500 pM hCD40L, Ramos NFkB-luc [11]: 3.86e-11 M; Max % activation, no ligand, Ramos NFkB-luc [11]: 5%; Max % inhibition, 500 pM hCD40L, Ramos NFkB-luc [11]: 93%; % max blockade relative to no mAb, IL-10, donor 1 [12]: 78.5%; % max blockade relative to no mAb, IL-10, donor 2 [12]: 93.6%; % max blockade relative to no mAb, IL-10, donor 3 [12]: 89.8%; % max blockade relative to no mAb, IL-6, donor 1 [13]: 83.2%; % max blockade relative to no mAb, IL-6, donor 2 [13]: 91.4%; % max blockade relative to no mAb, IL-6, donor 3 [13]: 91.4% |

From patent US20250277048A1 (Regeneron, published 2025)
